Measured values published in patent US20070224186A1.
Where no end group is shown, it is not given here.

Target: EG(2)-HepN
Test: competitive ELISA with EG(2)-HepN; competitor N-terminally biotinylated hepcidin-(28-47)

PQQTGQLAELQPQDRAGARA (not fully specified (C-terminus)) [hepcidin-(28-47)]
detection limit of the ELISA: 0.1 ng/well
